Experimental data from publication PMC6476931, “The Complex Fibrinogen Interactions of the Staphylococcus aureus Coagulases” (Frontiers in Cellular and Infection Microbiology, 2019).

B1: Human fibrinogen (complex)
chain 1: ADSGEGDFLAEGGGVRGPRVVERHQSACKDSDWPFCSDEDWNYKCPSGCRMKGLIDEVNQDFTNRINKLKNSLFEYQKNNKDSHSLTTNIMEILRGDFSSANNRDNTYNRVSEDLRSRIEVLKRKVIEKVQHIQLLQKNVRAQLVDMKRLEVDIDIKIRSCRGSCSRALAREVDLKDYEDQQKQLEQVIAKDLLPSRDRQHLPLIKMKPVPDLVPGNFKSQLQKVPPEWKALTDMPQMRMELERPGGNEITRGGSTSYGTGSETESPRNPSSAGSWNSGSSGPGSTGNRNPGSSGTGGTATWKPGSSGPGSTGSWNSGSSGTGSTGNQNPGSPRPGSTGTWNPGSSERGSAGHWTSESSVSGSTGQWHSESGSFRPDSPGSGNARPNNPDWGTFEEVSGNVSPGTRREYHTEKLVTSKGDKELRTGKEKVTSGSTTTTRRSCSKTVTKTVIGPDGHKEVTKEVVTSEDGSDCPEAMDLGTLSGIGTLDGFRHRHPDEAAFFDTASTGKTFPGFFSPMLGEFVSETESRGSESGIFTNTKESSSHHPGIAEFPSRGKSSSYSKQFTSSTSYNRGDSTFESKSYKMADEAGSEADHEGTHSTKRGHAKSRPV
chain 2: QGVNDNEEGFFSARGHRPLDKKREEAPSLRPAPPPISGGGYRARPAKAAATQKKVERKAPDAGGCLHADPDLGVLCPTGCQLQEALLQQERPIRNSVDELNNNVEAVSQTSSSSFQYMYLLKDLWQKRQKQVKDNENVVNEYSSELEKHQLYIDETVNSNIPTNLRVLRSILENLRSKIQKLESDVSAQMEYCRTPCTVSCNIPVVSGKECEEIIRKGGETSEMYLIQPDSSVKPYRVYCDMNTENGGWTVIQNRQDGSVDFGRKWDPYKQGFGNVATNTDGKNYCGLPGEYWLGNDKISQLTRMGPTELLIEMEDWKGDKVKAHYGGFTVQNEANKYQISVNKYRGTAGNALMDGASQLMGENRTMTIHNGMFFSTYDRDNDGWLTSDPRKQCSKEDGGGWWYNRCHAANPNGRYYWGGQYTWDMAKHGTDDGVVWMNWKGSWYSMRKMSMKIRPFFPQQ
chain 3: YVATRDNCCILDERFGSYCPTTCGIADFLSTYQTKVDKDLQSLEDILHQVENKTSEVKQLIKAIQLTYNPDESSKPNMIDAATLKSRKMLEEIMKYEASILTHDSSIRYLQEIYNSNNQKIVNLKEKVAQLEAQCQEPCKDTVQIHDITGKDCQDIANKGAKQSGLYFIKPLKANQQFLVYCEIDGSGNGWTVFQKRLDGSVDFKKNWIQYKEGFGHLSPTGTTEFWLGNEKIHLISTQSAIPYALRVELEDWNGRTSTADYAMFKVGPEADKYRLTYAYFAGGDAGDAFDGFDFGDDPSDKFFTSHNGMQFSTWDNDNDKFEGNCAEQDGSGWWMNKCHAGHLNGVYYQGGTYSKASTPNGYDNGIIWATWKTRWYSMKKTTMKIIPFNRLTIGEGQQHHLGGAKQAGDV
modifications: plasma-purified hexamer (AαBβγ)2, disulfide-linked, N-glycosylated, fibrinopeptides A and B retained. Predominant plasma forms assumed: 610-residue Aα and 411-residue γA (the P02679 canonical …)
B2: GST-Coa-N (N-terminal half of Coa) (domain or fragment)
chain: IVTKDYSGKSQVNAGSKNGTLIDSRYLNSALYYLEDYIIYAIGLTNKYEYGDNIYKEAKDRLLEKVLREDQYLLERKKSQYEDYKQWYANYKKENPRTDLKMANFHKYNLEELSMKEYNELQDALKRALDDFHREVKDIKDKNSDLKTFNAAEEDKATKEVYDLVSEIDTLVVSYYGDKDYGEHAKELRAKLDLILGDTDNPHKITNERIKKEMIDDLNSIIDDFFMETKQNRPKSITKYNPTTHNYKTNSDNKPNFDKLVEETKKAVKEADDSWKKKTVKKYG
modifications: plasma-purified hexamer (AαBβγ)2, disulfide-linked, N-glycosylated, fibrinopeptides A and B retained. Predominant plasma forms assumed: 610-residue Aα and 411-residue γA (the P02679 canonical …)
B3: GST-Coa-C (C-terminal half of Coa) (domain or fragment)
chain: ETETKSPVVKEEKKVEEPQAPKVDNQQEVKTTAGKAEETTQPVAQPLVKIPQGTITGEIVKGPEYPTMENKTVQGEIVQGPDFLTMEQSGPSLSNNYTNPPLTNPILEGLEGSSSKLEIKPQGTESTLKGTQGESSDIEVKPQATETTEASQYGPRPQFNKTPKYVKYRDAGTGIREYNDGTFGYEARPRFNKPSETNAYNVTTHANGQVSYGARPTYKKPSETNAYNVTTHANGQVSYGARPTQNKPSKTNAYNVTTHGNGQVSYGARPTQNKPSKTNAYNVTTHANGQVSYGARPTYKKPSKTNAYNVTTHADGTATYGPRVTK
modifications: plasma-purified hexamer (AαBβγ)2, disulfide-linked, N-glycosylated, fibrinopeptides A and B retained. Predominant plasma forms assumed: 610-residue Aα and 411-residue γA (the P02679 canonical …)

What was measured:
Settings in all cases: both partners purified
[1] = biological target: T1, GST-vWbp (full-length von Willebrand factor binding protein) (S. aureus strain Newman); assay: ELISA; GST-vWbp or GST-Coa coated on wells (5 μg/ml, 0.5 μg/well); soluble Fg in 1% BSA, 0.05% Tween 20, TBS; detected with HRP anti-human Fg; one-site fit, apparent KD, mean of three experiments
T1 construct: Cloned in pGEX-5x-1; also called full-length vWbp; source: E. coli BL21 (DE3)-derivative Acella, purified (glutathione-Sepharose 4B, gel permeation); not shown: GST, N-terminal, kept

[2] = biological target: T2, GST-Coa (full-length Coagulase) (S. aureus strain Newman); assay: as above
T2 construct: Coagulase (Coa), S. aureus strain Newman, coa gene amplified from chromosomal DNA; cloning described in Ko et al., 2016; the recombinant protein probably lacks it; also called intact Coa; source: E. coli BL21 (DE3)-derivative Acella, purified (glutathione-Sepharose 4B, gel permeation); not shown: GST, N-terminal, kept

[3] = biological target: T1, GST-vWbp (full-length von Willebrand …); assay: ELISA; Fg coated on wells (5 μg/ml, 0.5 μg/well); GST-vWbp or GST-Coa proteins in 1% BSA, 0.05% Tween 20, TBS, 1 h at room temperature; detected with HRP anti-GST; one-site fit, apparent KD, mean of three experiments
[4] = biological target: T2, GST-Coa (full-length Coagulase); assay: as above
Human fibrinogen = Human fibrinogen (human, UniProt P02671 36-866; P02675 45-491; P02679 27-453); assay: as above
Human fibrinogen, sequence (P02671 36-866, one chain of several): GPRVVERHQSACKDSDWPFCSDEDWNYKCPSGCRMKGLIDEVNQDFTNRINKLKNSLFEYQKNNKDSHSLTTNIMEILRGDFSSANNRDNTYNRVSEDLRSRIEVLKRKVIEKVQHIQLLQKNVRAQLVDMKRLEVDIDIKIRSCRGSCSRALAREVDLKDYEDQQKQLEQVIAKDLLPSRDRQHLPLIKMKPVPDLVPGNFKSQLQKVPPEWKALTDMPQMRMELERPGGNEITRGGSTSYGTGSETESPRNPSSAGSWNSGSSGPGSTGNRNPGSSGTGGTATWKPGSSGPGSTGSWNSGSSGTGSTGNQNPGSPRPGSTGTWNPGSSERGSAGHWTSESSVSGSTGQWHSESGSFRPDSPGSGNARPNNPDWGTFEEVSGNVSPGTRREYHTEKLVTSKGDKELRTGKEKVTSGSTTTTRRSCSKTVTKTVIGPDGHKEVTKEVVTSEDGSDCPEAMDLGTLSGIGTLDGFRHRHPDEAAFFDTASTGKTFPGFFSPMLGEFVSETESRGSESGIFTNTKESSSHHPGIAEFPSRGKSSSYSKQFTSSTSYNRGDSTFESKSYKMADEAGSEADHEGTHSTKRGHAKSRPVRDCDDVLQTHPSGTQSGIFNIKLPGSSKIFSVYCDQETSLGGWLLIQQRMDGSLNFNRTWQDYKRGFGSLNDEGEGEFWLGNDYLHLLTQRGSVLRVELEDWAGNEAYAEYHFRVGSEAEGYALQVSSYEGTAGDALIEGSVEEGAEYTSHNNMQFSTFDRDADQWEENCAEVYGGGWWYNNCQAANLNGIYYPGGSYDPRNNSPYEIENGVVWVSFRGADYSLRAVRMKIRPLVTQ

Binder | Kd [1] [nM] | Kd [2] [nM] | Kd [3] [nM] | Kd [4] [nM] | Kd (Human fibrinogen) [nM]
B1 | 5.3 | 0.09 | 9.9 | 2.4 | 
B2 |  |  |  |  | 20
B3 |  |  |  |  | 0.46
